One assay concerns the target T1, Apaf1 (human, UniProt O14727 1-1248).
T1 sequence: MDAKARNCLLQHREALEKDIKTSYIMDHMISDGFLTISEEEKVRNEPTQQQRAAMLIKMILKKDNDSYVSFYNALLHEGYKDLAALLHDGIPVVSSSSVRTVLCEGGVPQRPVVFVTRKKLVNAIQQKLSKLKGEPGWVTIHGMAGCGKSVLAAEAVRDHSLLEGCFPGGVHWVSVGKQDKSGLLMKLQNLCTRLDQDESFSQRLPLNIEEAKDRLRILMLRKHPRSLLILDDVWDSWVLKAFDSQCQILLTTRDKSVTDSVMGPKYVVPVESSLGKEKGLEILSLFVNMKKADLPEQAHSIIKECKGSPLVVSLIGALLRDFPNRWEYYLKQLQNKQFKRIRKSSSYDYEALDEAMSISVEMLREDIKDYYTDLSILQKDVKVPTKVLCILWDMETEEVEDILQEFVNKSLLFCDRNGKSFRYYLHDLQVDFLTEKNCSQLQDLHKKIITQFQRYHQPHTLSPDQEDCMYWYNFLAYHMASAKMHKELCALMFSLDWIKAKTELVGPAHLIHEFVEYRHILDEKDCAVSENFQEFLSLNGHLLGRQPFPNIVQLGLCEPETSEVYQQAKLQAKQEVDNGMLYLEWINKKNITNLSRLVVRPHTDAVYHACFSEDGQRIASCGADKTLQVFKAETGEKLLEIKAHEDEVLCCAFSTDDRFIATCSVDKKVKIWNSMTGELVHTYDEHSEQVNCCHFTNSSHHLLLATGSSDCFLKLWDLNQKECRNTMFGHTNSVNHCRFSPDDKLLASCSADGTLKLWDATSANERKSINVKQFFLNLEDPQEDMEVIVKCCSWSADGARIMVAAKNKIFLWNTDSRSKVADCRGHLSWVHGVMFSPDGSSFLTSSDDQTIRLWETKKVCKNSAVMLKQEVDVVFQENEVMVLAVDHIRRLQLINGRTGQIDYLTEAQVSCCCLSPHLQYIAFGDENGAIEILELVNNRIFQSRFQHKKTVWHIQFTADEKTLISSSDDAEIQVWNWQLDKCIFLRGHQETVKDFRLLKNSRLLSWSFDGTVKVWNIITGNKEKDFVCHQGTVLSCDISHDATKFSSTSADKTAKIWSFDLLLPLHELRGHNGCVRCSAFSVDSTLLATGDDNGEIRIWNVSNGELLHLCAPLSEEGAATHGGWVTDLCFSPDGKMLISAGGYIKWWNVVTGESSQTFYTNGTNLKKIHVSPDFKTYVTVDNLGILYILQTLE
Briefly: co-immunoprecipitation, transfected HEK293T cells, SDS-PAGE/immunoblot.

Another assay concerns the target T2, pro-Caspase-2 (UniProt P42575 1-452, limits assumed).
T2 sequence (looked up): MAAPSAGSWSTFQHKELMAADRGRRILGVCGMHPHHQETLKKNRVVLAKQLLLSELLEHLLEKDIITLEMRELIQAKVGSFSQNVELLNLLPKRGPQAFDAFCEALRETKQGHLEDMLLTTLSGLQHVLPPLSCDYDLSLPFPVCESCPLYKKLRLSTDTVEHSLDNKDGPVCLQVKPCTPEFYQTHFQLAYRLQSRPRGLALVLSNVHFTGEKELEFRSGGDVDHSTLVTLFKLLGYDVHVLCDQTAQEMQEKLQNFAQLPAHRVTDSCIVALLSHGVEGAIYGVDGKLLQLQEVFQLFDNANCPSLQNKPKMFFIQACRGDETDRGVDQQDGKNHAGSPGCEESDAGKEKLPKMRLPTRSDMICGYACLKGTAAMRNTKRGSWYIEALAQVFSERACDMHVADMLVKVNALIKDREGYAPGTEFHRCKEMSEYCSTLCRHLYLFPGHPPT
Described as above.

Experimental for Apaf1: (§1) The TUCAN polypeptides were expressed by transient transfection in HEK293T cells together with epitope-tagged pro-caspase-9 or other proteins. […] Cell lysates were prepared from transfected cells and immunoprecipitations were performed using anti-Flag or anti-Myc antibodies, followed by SDS-PAGE/immunoblot analysis.
Experimental for pro-Caspase-2: as §1

B1: TUCAN (Tumor Up-regulated CARD-containing Antagonist of Caspase Nine), full-length (other)
chain: MMRQRQSHYCSVLFLSVNYLGGTFPGDICSEENQIVSSYASKVCFEIEEDYKNRQFLGPEGNVDVELIDKSTNRYSVWFPTAGWYLWSATGLGFLVRDEVTVTIAFGSWSQHLALDLQHHEQWLVGGPLFDVTAEPEEAVAEIHLPHFISLQGEVDVSWFLVAHFKNEGMVLEHPARVEPFYAVLESPSFSLMGILLRIASGTRLSIPITSNTLIYYHPHPEDIKFHLYLVPSDALLTKAIDDEEDRFHGVRLQTSPPMEPLNFGSSYIVSNSANLKVMPKELKLSYRSPGEIQHFSKFYAGQMKEPIQLEITEKRHGTLVWDTEVKPVDLQLVAASAPPPFSGAAFVKENHRQLQARMGDLKGVLDDLQDNEVLTENEKELVEQEKTRQSKNEALLSMVEKKGDLALDVLFRSISERDPYLVSYLRQQNL
notes: Full-length TUCAN expressed by transient transfection in HEK293T cells; also called full-length TUCAN; CARD-X
Turning to B1, the binding result with Apaf1 and with pro-Caspase-2 was “no binding” throughout.

These data come from patent US20030165887A1 (BURNHAM INSTITUTE, published 2003).
